Our source for the AlphaLISA signal values is publication PMC10357528.

This assay addresses SARS-CoV-2 receptor-binding domain, wild-type (SARS-CoV-2) (UniProt P0DTC2). Description: AlphaScreen or HTRF. (In Alpha technology, singlet oxygen from a donor bead excites a nearby acceptor bead.)

Substance “SARS-CoV-2 receptor-binding domain, wild-type (from UniProt P0DTC2 319-541) (domain or fragment)” yielded an AlphaLISA signal of 29000 CPS.
